Blank lines part the entries; values can stand above or below the substance they belong to.
Key:
[1] = molecular target: radioiodinated mature transforming growth factor beta 1 (UniProt P01137); test: cross-linking
[2] = molecular target: beta 1-LAP deletion mutant L50-85 (simian); test: nonreducing SDS-PAGE with immunoblot
[3] = molecular target: beta 1-LAP deletion mutant L50-81 (simian); test: nonreducing SDS-PAGE with immunoblot
[4] = molecular target: beta 1-LAP deletion mutant L85-110 (simian); test: nonreducing SDS-PAGE with immunoblot
[5] = molecular target: mature TGFbeta1 secreted by COS-1 cells transfected with wild-type pre-pro-TGFbeta1 (simian); test: nonreducing SDS-PAGE with immunoblot
[6] = molecular target: beta 1-LAP deletion mutant L40-50 (simian); test: nonreducing SDS-PAGE with immunoblot

Chain of radioiodinated mature transforming growth factor beta 1 (P01137 279-390): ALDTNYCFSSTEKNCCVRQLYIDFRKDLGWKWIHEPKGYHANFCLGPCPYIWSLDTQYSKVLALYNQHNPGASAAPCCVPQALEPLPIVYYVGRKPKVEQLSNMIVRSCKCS
Chain of beta 1-latency-associated peptide (pro domain of TGFbeta1 expressed independently), wild type (domain or fragment) (P09533 30-390): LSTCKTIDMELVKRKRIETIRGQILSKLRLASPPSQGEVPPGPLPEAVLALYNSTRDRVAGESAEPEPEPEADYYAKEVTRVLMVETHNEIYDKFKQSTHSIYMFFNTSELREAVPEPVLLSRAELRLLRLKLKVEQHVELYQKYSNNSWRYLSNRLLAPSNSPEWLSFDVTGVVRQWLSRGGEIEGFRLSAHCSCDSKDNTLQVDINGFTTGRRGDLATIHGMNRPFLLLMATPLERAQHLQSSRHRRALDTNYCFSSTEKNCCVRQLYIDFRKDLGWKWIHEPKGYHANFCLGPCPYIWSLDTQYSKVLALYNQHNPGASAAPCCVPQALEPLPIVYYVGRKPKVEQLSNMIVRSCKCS

Substance: beta 1-latency-associated peptide (pro domain of TGFbeta1 expressed independently), wild type (domain or fragment)
cross-linking (% of wild-type) (% of wild-type) [1]: 100

Substance: mature TGFbeta1 secreted by COS-1 cells transfected with wild-type pre-pro-TGFbeta1 (ligand)
stoichiometry N [5]: 2

Substance: beta 1-LAP deletion mutant L40-50 (domain or fragment)
cross-linking (% of wild-type) (% of wild-type) [1]: 10
stoichiometry N [6]: 2

Other lines, results leading:

stoichiometry N [2]: 2
Substance: beta 1-LAP deletion mutant L50-85 (domain or fragment)

stoichiometry N [3]: 2
Substance: beta 1-LAP deletion mutant L50-81 (domain or fragment)

cross-linking (% of wild-type) (% of wild-type) [1]: 12
stoichiometry N [4]: 2
Substance: beta 1-LAP deletion mutant L85-110 (domain or fragment)
